Results from article PMC8087810, “Interfacing aptamers, nanoparticles and graphene in a hierarchical structure for highly selective detection of biomolecules in OECT devices”.

Target: alpha-thrombin (UniProt P00734;P00734 328-363;364-622)
Test: OECT aptasensor (sigmoidal fit of delta ratio, EC50); EC50 of sensor response, 1-100 pM thrombin, Tris buffer; LoD 5.000±0.087 pM; surface-immobilized aptamer; Thrombin: Tris buffer (composition not in material); BSA: PBS (137 mM NaCl, 2.7 mM KCl, 10 mM Na2HPO4, 1.8 mM KH2PO4), pH 7.4 (Tris stated as same pH); BSA and

B1: TBA15 (thrombin binding aptamer, Fc/SH modified) (structured_DNA)
DNA: GGTTGGTGTGGTTGG
modifications: 5' ferrocene; 3' C6-SH thiol, immobilized on AuNPs-PMLG gate electrode, MCH blocked
apparent K (half saturation): 0.0489 nM
